Tests used:
[1] = target: GST-RhoC (wild type) (human) (UniProt P08134)
GST-RhoC-43T (human) = GST-RhoC-43T (human) (UniProt P08134)

XPLN-catalysed mant-nucleotide exchange in vitro, fold stimulation [1]: 1.1 fold
XPLN-catalysed mant-nucleotide exchange in vitro, fold stimulation (GST-RhoC-43T (human)): 1.4 fold
B1: GST-XPLN (full length) (enzyme)
chain: MVAKDYPFYLTVKRANCSLELPPASGPAKDAEEPSNKRVKPLSRVTSLANLIPPVKATPLKRFSQTLQRSISFRSESRPDILAPRPWSRNAAPSSTKRRDSKLWSETFDVCVNQMLTSKEIKRQEAIFELSQGEEDLIEDLKLAKKAYHDPMLKLSIMTEQELNQIFGTLDSLIPLHEELLSQLRDVRKPDGSTEHVGPILVGWLPCLSSYDSYCSNQVAAKALLDHKKQDHRVQDFLQRCLESPFSRKLDLWNFLDIPRSRLVKYPLLLREILRHTPNDNPDQQHLEEAINIIQGIVAEINTKTGESECRYYKERLLYLEEGQKDSLIDSSRVLCCHGELKNNRGVKLHVFLFQEVLVITRAVTHNEQLCYQLYRQPIPVKDLLLEDLQDGEVRLGGSLRGAFSNNERIKNFFRVSFKNGSQSQTHSLQANDTFNKQQWLNCIRQAKETVLCAAGQAGVLDSEGSFLNPTTGSRELQGETKLEQMDQSDSESDCSMDTSEVSLDCERMEQTDSSCGNSRHGESNV

— article PMC3398911
